# Measured values as given in patent US20200010567A1 (NEURIMMUNE, published 2020).
# T1: (GR)15: H-C(GR)15-OH
# T1 construct: synthetic, not coupled to BSA; also called poly-GR DPR protein peptide
# T1 peptide: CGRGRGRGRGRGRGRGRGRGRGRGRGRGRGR
# T2: (PA)15: H-C(PA)15-OH
# T2 construct: synthetic, not coupled to BSA; also called poly-PA DPR protein peptide
# T2 peptide: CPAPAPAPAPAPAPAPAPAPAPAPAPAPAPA
# T3: (PR)15: H-C(PR)15-OH
# T3 construct: synthetic, not coupled to BSA; also called poly-PR DPR protein peptide
# T3 peptide: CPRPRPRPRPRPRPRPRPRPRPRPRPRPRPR
# T4: (GA)15: H-CHHHHHH(GA)15-OH
# T4 construct: synthetic, not coupled to BSA; also called poly-GA DPR protein peptide
# T4 peptide: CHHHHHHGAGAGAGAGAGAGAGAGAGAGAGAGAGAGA
# T5: (GP)15: H-C(GP)15-OH
# T5 construct: synthetic, not coupled to BSA; also called poly-GP DPR protein peptide
# T5 peptide: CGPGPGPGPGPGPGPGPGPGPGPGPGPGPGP
# B1: NI-308.12A3 (antibody, V domains shown)
# VH: EVQLVETGGGLVQPGGSLRLSCVGSGFLFSDFEMDWVRQAPGKGLEWISYISGDGNIIYQTDSVKGRFTISRDNAKNSLFLQMDSLTVEDTAVYYCARDARENCGGDCYSTSFDFWGQGTLVTVSS
# VL: DIQMTQSPDSLAVSLGERATINCKSSQSLLYTANNRNYLAWYQKKAGQPPKLLIHWASTRASGVPDRFSGSGSGTDFILTISSLQAEDVAVYFCQHYYNSPRTFGQGTKVEIK
# notes: Recombinant complete human IgG1, kappa
# B2: NI-308.46F8 (antibody, V domains shown)
# VH: QVQLVESGGGVVRPGGSLRLSCTASGFTFDEYGMSWVRQVPGKGLEWVSGINWNGATTRYADSVKGRFTISRDNAKNSLYLQMNSLRAEDTALYHCARDGCRNTSCYIWDWFDPWGQGTLVTVSS
# VL: CQSVLTQPPSVSAAPGQKVTISCSGSSSNIGNNYVCWYQNLPGTAPKLLIYDDNKRPSGIPDRFSGSKSGTSATLGITGLQTGDEADYYCGTWDSSLSVVVFGGGTKLTVL
# B3: NI-308.16C10 (antibody, V domains shown)
# VH: EVQLVETGGGVVQPGMSLSLSCAATGFTFSSYGMHWVRQGPGKGPEWVAGIWYDGTNKYYGDSVTGRVTISRDNSKNTLFLQMINVRVEDTAVYYCVKDAERVQKWASYIMDVWGQGTTVTVSS
# VL: EIVLTQSPGILSLSRGNRVALSCRASRSVNSSYLNWYQQKPGQAPRLLIYGASKRATGISDRFRGTGSGTDFTLTVARLEPEDIAVYYCQHYGAFGQGTKLEIK
# notes: as for B1
# What was measured:
# (GR)15: H-C(GR)15-OH [1] = target: T1, (GR)15: H-C(GR)15-OH; assay: indirect ELISA, coated peptide
# Experimental: (§1) In brief, dipeptide repeat proteins were synthesized and purified by Schafer-N(Copenhagen, Denmark): (GA)₁₅: H-CHHHHHH(GA)₁₅-OH; (GP)₁₅: H-C(GP)₁₅-OH; (GR)₁₅: H-C(GR)₁₅-OH; (PA)₁₅: H-C(PA)₁₅-OH; (PR)₁₅: H—C(PR)₁₅-OH. 96-well microplates (Corning Incorporated, Corning, USA) were coated with dipeptide repeat protein peptides at a concentration of either 5 μg/ml or 20 μg/ml in coating buffer (15 mM Na₂CO₃, 35 mM NaHCO₃, pH 9.42). Non-specific binding sites were blocked for 1 h at room temperature with PBS/0.1% Tween®-20 containing 2% BSA (Sigma-Aldrich, Buchs, Switzerland). Primary antibodies were diluted to the indicated concentrations and incubated for 1 h at room temperature, followed by incubation with a donkey anti-human IgG Fcγ-specific antibody conjugated with HRP (Jackson ImmunoResearch Laboratories, Inc., West Grove, USA). Binding was determined by measurement of HRP activity in a standard colorimetric assay. EC₅₀ values were estimated by non-linear regression using GraphPad Prism software (San Diego, USA). The binding specificity and EC₅₀ of human-derived antibodies for C9orf72 dipeptide repeat protein peptides (GA)₁₅, (GP)₁₅, (GR)₁₅, (PA)₁₅ and (PR)₁₅ were determined by indirect ELISA.
# (PA)15: H-C(PA)15-OH [2] = target: T2, (PA)15: H-C(PA)15-OH; assay: indirect ELISA, coated peptide
# Experimental: as §1
# (PR)15: H-C(PR)15-OH [3] = target: T3, (PR)15: H-C(PR)15-OH; assay: indirect ELISA, coated peptide
# Experimental: as §1
# [4] = target: T6, BSA-coupled (GR)15 DPR protein peptide (bovine, UniProt P02769 25-607, conjugated via a bifunctional linker (SMCC) to bovine serum albumin); assay: Western blot of BSA-coupled peptides
# T6 construct: also called BSA-(GR)15
# T6 sequence (P02769 25-607 limits assumed): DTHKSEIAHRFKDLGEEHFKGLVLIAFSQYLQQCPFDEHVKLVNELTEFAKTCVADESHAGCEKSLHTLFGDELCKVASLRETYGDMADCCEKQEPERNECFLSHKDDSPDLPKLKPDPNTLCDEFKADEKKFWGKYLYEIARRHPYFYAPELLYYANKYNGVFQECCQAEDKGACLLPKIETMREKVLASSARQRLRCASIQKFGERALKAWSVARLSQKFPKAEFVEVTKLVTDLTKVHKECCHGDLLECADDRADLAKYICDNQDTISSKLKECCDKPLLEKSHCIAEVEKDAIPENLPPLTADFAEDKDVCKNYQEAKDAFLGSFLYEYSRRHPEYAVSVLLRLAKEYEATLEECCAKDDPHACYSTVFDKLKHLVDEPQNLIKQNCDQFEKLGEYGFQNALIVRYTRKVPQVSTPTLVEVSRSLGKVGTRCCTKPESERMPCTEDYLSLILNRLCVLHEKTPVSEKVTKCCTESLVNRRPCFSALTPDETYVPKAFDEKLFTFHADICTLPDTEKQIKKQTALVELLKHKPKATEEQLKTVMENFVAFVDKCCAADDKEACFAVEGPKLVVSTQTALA
# Experimental: (§2) Resolved proteins were then electroblotted (Novex® Semi-Dry Blotter, 1 h, 25V) on methanol-activated PVDF membranes (Immobilon®-P Transfer Membrane, Merck & Cie, Schaffhausen, Switzerland) by the use of Novex® NuPAGE® transfer buffer 2× (Life Technologies Europe B.V., Zug, Switzerland). Non-specific binding sites were blocked overnight at 4° C. (or alternatively for 1 h at room temperature) with PBS/0.1% Tween®-20 containing 2% BSA (Sigma-Aldrich, Buchs, Switzerland) (PBST). […] Membranes were washed three times in PBST for 15 min at RT and then incubated with a donkey anti-human IgG Fcγ-specific antibody conjugated with HRP (1:20000 or 1:10000 dilution, Jackson ImmunoResearch Laboratories, Inc., West Grove, USA) for 1 h at room temperature. Antibody binding was determined by membrane development using ECL and ImageQuant 350 detection (GE Healthcare, Otelfingen, Switzerland).
# (§3) The binding specificity of the human-derived antibodies to BSA-coupled C9orf72 dipeptide repeat proteins (GA)₁₅, (GP)₁₅, (GR)₁₅, (PA)₁₅ and (PR)₁₅ was determined by Western blot analysis.
# [5] = target: T7, BSA-coupled (PA)15 DPR protein peptide (bovine, UniProt P02769 25-607, conjugated via a bifunctional linker (SMCC) to bovine serum albumin); assay: Western blot of BSA-coupled peptides
# T7 construct: also called BSA-(PA)15
# T7 sequence (P02769 25-607 limits assumed): as above
# Experimental: as §2, §3
# [6] = target: T8, BSA-coupled (PR)15 DPR protein peptide (bovine, conjugated via a bifunctional linker (SMCC) to bovine serum albumin); assay: Western blot of BSA-coupled peptides
# T8 construct: also called BSA-(PR)15
# T8 sequence (P02769 25-607 limits assumed): as above
# Experimental: as §2, §3
# [7] = target: T4, (GA)15: H-CHHHHHH(GA)15-OH; assay: indirect ELISA, uncoupled peptide coated, antibody titrated [also D00011 FIG. 2L]
# Experimental: as §1
# (GP)15: H-C(GP)15-OH [8] = target: T5, (GP)15: H-C(GP)15-OH; assay: indirect ELISA, uncoupled peptide coated, antibody titrated [also D00015 FIG. 3L]
# Experimental: as §1, with “(PR)₁₅: H—C(PR)₁₅-OH. DPR protein peptides were then conjugated via a bifunctional linker (SMCC) to bovine serum albumin (BSA). 96-well microplates” for “(PR)₁₅: H—C(PR)₁₅-OH. 96-well microplates”, “coated with BSA-coupled or -uncoupled dipeptide repeat” for “coated with dipeptide repeat”, “and incubated 1 h” for “and incubated for 1 h”, “Diego, USA).” for “Diego, USA). The binding specificity and EC₅₀ of human-derived antibodies for C9orf72 dipeptide repeat protein peptides (GA)₁₅, (GP)₁₅, (GR)₁₅, (PA)₁₅ and (PR)₁₅ were determined by indirect ELISA.”
# [9] = target: T9, BSA-coupled (GP)15 DPR protein peptide (bovine, conjugated via a bifunctional linker (SMCC) to bovine serum albumin); assay: indirect ELISA, BSA-coupled peptide coated, antibody titrated [also D00015 FIG. 3L]
# T9 construct: also called BSA-(GP)15
# T9 sequence (P02769 25-607 limits assumed): as above
# Experimental: as §1, with “(PR)₁₅: H—C(PR)₁₅-OH. DPR protein peptides were then conjugated via a bifunctional linker (SMCC) to bovine serum albumin (BSA). 96-well microplates” for “(PR)₁₅: H—C(PR)₁₅-OH. 96-well microplates”, “coated with BSA-coupled or -uncoupled dipeptide repeat” for “coated with dipeptide repeat”, “and incubated 1 h” for “and incubated for 1 h”, “Diego, USA).” for “Diego, USA). The binding specificity and EC₅₀ of human-derived antibodies for C9orf72 dipeptide repeat protein peptides (GA)₁₅, (GP)₁₅, (GR)₁₅, (PA)₁₅ and (PR)₁₅ were determined by indirect ELISA.”
# (GP)15: H-C(GP)15-OH [10] = target: T5, (GP)15: H-C(GP)15-OH; assay: indirect ELISA, coated peptide
# Experimental: as §1
# Tau = Tau (UniProt P10636-8 1-441, limits assumed); assay: indirect ELISA, coated protein
# Tau, sequence (P10636 other isoform, or with tags, fused parts or gaps limits assumed): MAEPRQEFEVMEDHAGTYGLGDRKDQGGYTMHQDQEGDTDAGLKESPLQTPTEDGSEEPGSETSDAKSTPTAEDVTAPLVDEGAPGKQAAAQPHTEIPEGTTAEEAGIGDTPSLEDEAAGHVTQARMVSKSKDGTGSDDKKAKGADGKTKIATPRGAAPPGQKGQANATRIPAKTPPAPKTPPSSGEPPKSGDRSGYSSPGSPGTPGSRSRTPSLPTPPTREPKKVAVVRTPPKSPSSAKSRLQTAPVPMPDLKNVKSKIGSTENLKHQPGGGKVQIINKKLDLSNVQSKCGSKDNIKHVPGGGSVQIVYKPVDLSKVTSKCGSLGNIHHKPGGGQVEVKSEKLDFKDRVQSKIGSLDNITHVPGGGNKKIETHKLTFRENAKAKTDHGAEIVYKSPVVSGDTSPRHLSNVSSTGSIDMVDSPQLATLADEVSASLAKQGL
# Experimental: (§4) 96-well microplates (Corning) were coated with different target proteins at a concentration of 1-10 μg/ml in coating buffer (15 mM Na₂CO₃, 35 mM NaHCO₃, pH 9.42). Non-specific binding sites were blocked for 1 h at RT with PBS/0.1% Tween®-20 containing 2% BSA (Sigma-Aldrich, Buchs, Switzerland). […] Binding was determined using donkey anti-human IgG Fcγ-specific antibody conjugated with HRP (Jackson ImmunoResearch Laboratories, Inc., West Grove, USA) followed by measurement of HRP activity in a standard colorimetric assay. Signals for target protein were calculated in fold increase above median.
# [11] = target: T10, transactive response DNA binding protein 43 (UniProt Q13148 1-414, limits assumed); assay: indirect ELISA, coated protein
# T10 construct: also called TDP-43
# T10 sequence (Q13148 whole entry): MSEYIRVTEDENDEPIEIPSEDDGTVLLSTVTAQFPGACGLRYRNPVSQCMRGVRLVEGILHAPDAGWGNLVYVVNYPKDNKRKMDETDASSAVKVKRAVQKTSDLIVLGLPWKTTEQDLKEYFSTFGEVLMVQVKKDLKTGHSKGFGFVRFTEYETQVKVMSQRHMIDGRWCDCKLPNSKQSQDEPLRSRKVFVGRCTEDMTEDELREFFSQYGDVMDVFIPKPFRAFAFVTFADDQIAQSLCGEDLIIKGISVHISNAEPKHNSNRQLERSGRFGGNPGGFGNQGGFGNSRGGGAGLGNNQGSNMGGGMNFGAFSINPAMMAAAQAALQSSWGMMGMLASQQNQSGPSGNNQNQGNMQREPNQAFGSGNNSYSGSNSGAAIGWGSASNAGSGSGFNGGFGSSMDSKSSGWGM
# Experimental: as §4
# transthyrethin = transthyrethin (UniProt P02766 21-147); assay: indirect ELISA, coated protein
# Experimental: as §4
# [12] = target: T11, full-length amyloid precursor protein (UniProt P05067 18-770, limits assumed); assay: indirect ELISA, coated protein
# T11 construct: also called flAPP
# T11 sequence (P05067 18-770 limits assumed): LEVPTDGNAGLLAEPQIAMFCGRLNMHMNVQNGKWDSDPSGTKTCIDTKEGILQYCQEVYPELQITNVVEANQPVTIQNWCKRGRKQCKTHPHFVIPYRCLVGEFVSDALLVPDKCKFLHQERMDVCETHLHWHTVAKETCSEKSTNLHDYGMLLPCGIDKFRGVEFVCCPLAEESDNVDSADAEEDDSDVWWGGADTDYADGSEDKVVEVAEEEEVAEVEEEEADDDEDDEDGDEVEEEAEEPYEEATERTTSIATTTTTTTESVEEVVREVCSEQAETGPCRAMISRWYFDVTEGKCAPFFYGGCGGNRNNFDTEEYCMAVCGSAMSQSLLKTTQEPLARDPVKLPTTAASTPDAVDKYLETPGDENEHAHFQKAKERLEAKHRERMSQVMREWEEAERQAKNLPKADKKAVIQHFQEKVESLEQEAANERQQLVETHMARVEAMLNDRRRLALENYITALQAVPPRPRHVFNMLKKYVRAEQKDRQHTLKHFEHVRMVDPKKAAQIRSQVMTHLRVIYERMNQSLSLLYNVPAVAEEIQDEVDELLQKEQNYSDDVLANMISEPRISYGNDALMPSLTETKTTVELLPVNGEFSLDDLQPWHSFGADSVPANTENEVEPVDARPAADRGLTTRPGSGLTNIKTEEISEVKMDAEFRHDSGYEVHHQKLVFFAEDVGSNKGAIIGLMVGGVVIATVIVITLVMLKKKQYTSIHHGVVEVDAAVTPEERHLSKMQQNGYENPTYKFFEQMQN
# Experimental: as §4
# [13] = target: T9, BSA-coupled (GP)15 DPR protein peptide; assay: Western blot, BSA-coupled peptide
# Experimental: as §2, §3
# [14] = target: T7, BSA-coupled (PA)15 DPR protein peptide; assay: Western blot, BSA-coupled peptide
# Experimental: as §2, §3
# (GR)15: H-C(GR)15-OH [15] = target: T1, (GR)15: H-C(GR)15-OH; assay: indirect ELISA, coated uncoupled peptide
# Experimental: as §1
# (GR)15: H-C(GR)15-OH [16] = target: T1, (GR)15: H-C(GR)15-OH; assay: indirect ELISA, uncoupled peptide coated, antibody titrated [also D00015 FIG. 3J]
# Experimental: as §1, with “(PR)₁₅: H—C(PR)₁₅-OH. DPR protein peptides were then conjugated via a bifunctional linker (SMCC) to bovine serum albumin (BSA). 96-well microplates” for “(PR)₁₅: H—C(PR)₁₅-OH. 96-well microplates”, “coated with BSA-coupled or -uncoupled dipeptide repeat” for “coated with dipeptide repeat”, “and incubated 1 h” for “and incubated for 1 h”, “Diego, USA).” for “Diego, USA). The binding specificity and EC₅₀ of human-derived antibodies for C9orf72 dipeptide repeat protein peptides (GA)₁₅, (GP)₁₅, (GR)₁₅, (PA)₁₅ and (PR)₁₅ were determined by indirect ELISA.”
# [17] = target: T9, BSA-coupled (GP)15 DPR protein peptide; assay: Western blot of BSA-coupled peptides
# Experimental: as §2, §3
# [18] = target: T4, (GA)15: H-CHHHHHH(GA)15-OH; assay: indirect ELISA, uncoupled peptide coated, antibody titrated [also D00011 FIG. 2M]
# Experimental: as §1
# (PA)15: H-C(PA)15-OH [19] = target: T2, (PA)15: H-C(PA)15-OH; assay: as above
# Experimental: as §1
# (PR)15: H-C(PR)15-OH [20] = target: T3, (PR)15: H-C(PR)15-OH; assay: indirect ELISA, uncoupled peptide coated, antibody titrated [also D00016 FIG. 3M]
# Experimental: as §1, with “(PR)₁₅: H—C(PR)₁₅-OH. DPR protein peptides were then conjugated via a bifunctional linker (SMCC) to bovine serum albumin (BSA). 96-well microplates” for “(PR)₁₅: H—C(PR)₁₅-OH. 96-well microplates”, “coated with BSA-coupled or -uncoupled dipeptide repeat” for “coated with dipeptide repeat”, “and incubated 1 h” for “and incubated for 1 h”, “Diego, USA).” for “Diego, USA). The binding specificity and EC₅₀ of human-derived antibodies for C9orf72 dipeptide repeat protein peptides (GA)₁₅, (GP)₁₅, (GR)₁₅, (PA)₁₅ and (PR)₁₅ were determined by indirect ELISA.”
# [21] = target: T8, BSA-coupled (PR)15 DPR protein peptide; assay: indirect ELISA, BSA-coupled peptide coated, antibody titrated [also D00016 FIG. 3M]
# Experimental: as §1, with “(PR)₁₅: H—C(PR)₁₅-OH. DPR protein peptides were then conjugated via a bifunctional linker (SMCC) to bovine serum albumin (BSA). 96-well microplates” for “(PR)₁₅: H—C(PR)₁₅-OH. 96-well microplates”, “coated with BSA-coupled or -uncoupled dipeptide repeat” for “coated with dipeptide repeat”, “and incubated 1 h” for “and incubated for 1 h”, “Diego, USA).” for “Diego, USA). The binding specificity and EC₅₀ of human-derived antibodies for C9orf72 dipeptide repeat protein peptides (GA)₁₅, (GP)₁₅, (GR)₁₅, (PA)₁₅ and (PR)₁₅ were determined by indirect ELISA.”
binder,measurement,setting,value
B1,binding result,(GR)15: H-C(GR)15-OH [1],no binding
same,binding result,(PA)15: H-C(PA)15-OH [2],no binding
same,binding result,(PR)15: H-C(PR)15-OH [3],no binding
same,binding result,[4],no binding
same,binding result,[5],no binding
same,binding result,[6],no binding
same,EC50,[7],19 nM
same,EC50,(GP)15: H-C(GP)15-OH [8],2.2 nM
same,EC50,[9],6.1 nM
B2,binding result,(GP)15: H-C(GP)15-OH [10],no binding
same,binding result,(PA)15: H-C(PA)15-OH [2],no binding
same,binding result,Tau,no binding (tested: 20 nM)
same,binding result,[11],no binding (tested: 20 nM)
same,binding result,transthyrethin,no binding (tested: 20 nM)
same,binding result,[12],no binding (tested: 20 nM)
same,binding result,[13],no binding (tested: 10 nM or 100 nM)
same,binding result,[14],no binding (tested: 10 nM or 100 nM)
same,EC50,(GR)15: H-C(GR)15-OH [15],40.6 nM
same,EC50,(GR)15: H-C(GR)15-OH [16],90.3 nM
B3,binding result,(GP)15: H-C(GP)15-OH [10],no binding
same,binding result,(GR)15: H-C(GR)15-OH [1],no binding
same,binding result,[17],no binding
same,binding result,[4],no binding
same,binding result,[5],no binding
same,EC50,[18],55.1 nM
same,binding result,(PA)15: H-C(PA)15-OH [19],no binding (tested: about 4x10^5 pM (last point))
same,EC50,(PR)15: H-C(PR)15-OH [20],3.5 nM
same,EC50,[21],91.1 nM
